Reference: US10464978B2, “Peptides and combination of peptides for use in immunotherapy against ovarian cancer and other cancers” (immatics biotechnologies GmbH, priority 2015, dated 2019)

Target: HLA-A*02:01 (Homo sapiens, UniProt P04439, D140Y/D185E/D98H/E176V/E277Q/G131W/G231S/I119V/I121R/I166T/I218V/L300P/L318F/N151K/N90K/P208A/P217A/Q86G/Q94H/R138H/R169H/T345S)
Assay: MHC binding assay: UV-ligand exchange with beta2m ELISA (peptide exchange yield)
Conditions: binding to HLA-A*02:01
Procedure, shortened: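 Values give exchange yield, measured by β2m ELISA: 100-fold-diluted monomers bound to streptavidin plates (1h, 37° C), probed with HRP anti-β2m at 2 ug/ml and read at 450 nm after TMB. Monomers came from UV-triggered cleavage of a photolabile peptide and exchange for the test peptide.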

Row | Peptide exchange (MHC class I binding score, peptide exchange yield) | Substance
1 | “++++” (≥75% = ++++) | 177 (YLLPEEYTSTL; listed as Homo sapiens) [compound 177]
2 | “++++” (≥75% = ++++) | 178 (ALTEIAFVV; listed as Homo sapiens) [compound 178]
3 | “+++” (≥50 = +++) | 179 (KVLNELYTV; listed as Homo sapiens) [compound 179]
4 | “++” (≥20% = ++) | 180 (FQIDPHSGLVTV; listed as Homo sapiens) [compound 180]
5 | “+++” (≥50 = +++) | 181 (LLWAGTAFQV; listed as Homo sapiens) [compound 181]
6 | “+++” (≥50 = +++) | 182 (MLLEAPGIFL; listed as Homo sapiens) [compound 182]
7 | “+++” (≥50 = +++) | 183 (FGLDLVTEL; listed as Homo sapiens) [compound 183]
8 | “+++” (≥50 = +++) | 184 (YLMDINGKMWL; listed as Homo sapiens) [compound 184]
9 | “++” (≥20% = ++) | 185 (FLIDDKGYTL; listed as Homo sapiens) [compound 185]
10 | “++” (≥20% = ++) | 186 (TLFFQQNAL; listed as Homo sapiens) [compound 186]
11 | “+++” (≥50 = +++) | 187 (RQISIRGIVGV; listed as Homo sapiens) [compound 187]
12 | “+++” (≥50 = +++) | 188 (GLFPVTPEAV; listed as Homo sapiens) [compound 188]
13 | “+++” (≥50 = +++) | 189 (ALQRKLPYV; listed as Homo sapiens) [compound 189]
14 | “+++” (≥50 = +++) | 190 (FLSSLTETI; listed as Homo sapiens) [compound 190]
15 | “++” (≥20% = ++) | 191 (LLQEGQALEYV; listed as Homo sapiens) [compound 191]
16 | “+++” (≥50 = +++) | 192 (KMLDGASFTL; listed as Homo sapiens) [compound 192]
17 | “+++” (≥50 = +++) | 193 (QLLDADGFLNV; listed as Homo sapiens) [compound 193]
18 | “+++” (≥50 = +++) | 194 (ALPLFVITV; listed as Homo sapiens) [compound 194]
19 | “+++” (≥50 = +++) | 195 (GLFADLLPRL; listed as Homo sapiens) [compound 195]
20 | “++++” (≥75% = ++++) | 196 (YLYSVEIKL; listed as Homo sapiens) [compound 196]
21 | “++” (≥20% = ++) | 197 (ALGPEGGRV; listed as Homo sapiens) [compound 197]
22 | “+++” (≥50 = +++) | 198 (KTINKVPTV; listed as Homo sapiens) [compound 198]
23 | “+++” (≥50 = +++) | 199 (ALQDVPLSSV; listed as Homo sapiens) [compound 199]

Row | Peptide exchange (MHC class I binding score, peptide exchange yield) | Substance
24 | “+++” (≥50 = +++) | 200 (LLFGSVQEV; listed as Homo sapiens) [compound 200]
25 | “+++” (≥50 = +++) | 201 (RLVDYLEGI; listed as Homo sapiens) [compound 201]
26 | “+++” (≥50 = +++) | 202 (ALLDQQGSRWTL; listed as Homo sapiens) [compound 202]
27 | “++” (≥20% = ++) | 204 (KIAENVEEV; listed as Homo sapiens) [compound 204]
28 | “+++” (≥50 = +++) | 205 (SLYPGTETMGL; listed as Homo sapiens) [compound 205]
29 | “+++” (≥50 = +++) | 206 (VLQEGKLQKLAQL; listed as Homo sapiens) [compound 206]
30 | “++” (≥20% = ++) | 207 (GLTSTNAEV; listed as Homo sapiens) [compound 207]
31 | “+++” (≥50 = +++) | 208 (KISPVTFSV; listed as Homo sapiens) [compound 208]
32 | “++” (≥20% = ++) | 209 (KLIESKHEV; listed as Homo sapiens) [compound 209]
33 | “++” (≥20% = ++) | 210 (LLLNAVLTV; listed as Homo sapiens) [compound 210]
34 | “++” (≥20% = ++) | 211 (LLWPGAALL; listed as Homo sapiens) [compound 211]
35 | “++” (≥20% = ++) | 212 (ALWDQDNLSV; listed as Homo sapiens) [compound 212]
36 | “+++” (≥50 = +++) | 214 (FLLDLDPLLL; listed as Homo sapiens) [compound 214]
37 | “+++” (≥50 = +++) | 215 (QLINHLHAV; listed as Homo sapiens) [compound 215]
38 | “+++” (≥50 = +++) | 216 (NLWEDPYYL; listed as Homo sapiens) [compound 216]
39 | “++” (≥20% = ++) | 217 (ALIHPVSTV; listed as Homo sapiens) [compound 217]
40 | “++” (≥20% = ++) | 218 (SALEELVNV; listed as Homo sapiens) [compound 218]
41 | “+++” (≥50 = +++) | 219 (KLSDIGITV; listed as Homo sapiens) [compound 219]
42 | “++” (≥20% = ++) | 220 (LLQKFVPEI; listed as Homo sapiens) [compound 220]
43 | “++” (≥20% = ++) | 221 (ALYEEGLLL; listed as Homo sapiens) [compound 221]
44 | “++” (≥20% = ++) | 222 (NLIENVQRL; listed as Homo sapiens) [compound 222]
45 | “+++” (≥50 = +++) | 223 (ALLENIALYL; listed as Homo sapiens) [compound 223]
46 | “+++” (≥50 = +++) | 224 (TLIDAQWVL; listed as Homo sapiens) [compound 224]
